Drawing on doi:10.1101/2021.08.20.457142, this text covers screen value for 75 variants.

To fix the notation:
B1: MKK7 D-site peptide (second D-site) / JNK1 alpha1 (MAPK8 isoform 1) L198A, full length (parent complex)
chain 1: SQPQRPRPTLQLPLANEAFEQP
chain 2: MSRSKRDNNFYSVEIGDSTFTVLKRYQNLKPIGSGAQGIVCAAYDAILERNVAIKKLSRPFQNQTHAKRAYRELVLMKCVNHKNIIGLLNVFTPQKSLEEFQDVYIVMELMDANLCQVIQMELDHERMSYLLYQMLCGIKHLHSAGIIHRDLKPSNIVVKSDCTLKILDFGLARTAGTSFMMTPYVVTRYYRAPEVIAGMGYKENVDLWSVGCIMGEMVCHKILFPGRDYIDQWNKVIEQLGTPCPEFMKKLQPTVRTYVENRPKYAGYSFEKLFPDVLFPADSEHNKLKASQARDLLSKMLVIDASKRISVDEALQHPYINVWYDPSEAEAPPPKIPDKQLDEREHTIEEWKELIYKEVMDLEERTKNGVIRGQPSPLAQVQQ

The variants in this assay derive from B1.
On to chain 1 Q4Y, for which the screen value is 1.67 Z-score of the enrichment rate within one screen of 711 sequences. In the case of chain 1 Q4L, the screen value is 1.47 Z-score of the enrichment rate within one screen of 711 sequences.

As to chain 1 Q4F, the screen value was 1.4 Z-score of the enrichment rate within one screen of 711 sequences. Take chain 1 R7V: the screen value was 0.194 Z-score of the enrichment rate within one screen of 711 sequences.

On to chain 1 R7L, for which the screen value is 0.372 Z-score of the enrichment rate within one screen of 711 sequences. chain 1 R7P: the screen value was 0.478 Z-score of the enrichment rate within one screen of 711 sequences.

Take chain 1 R7F: the screen value is 0.186 Z-score of the enrichment rate within one screen of 711 sequences. chain 1 R7A: the screen value is 0.016 Z-score of the enrichment rate within one screen of 711 sequences. chain 1 R7I: the screen value is 0.221 Z-score of the enrichment rate within one screen of 711 sequences.

For chain 1 R7Q, the screen value was -0.0451 Z-score of the enrichment rate within one screen of 711 sequences.

In the case of chain 1 R7E, the screen value is -0.371 Z-score of the enrichment rate within one screen of 711 sequences. Take chain 1 R7G: the screen value was -0.481 Z-score of the enrichment rate within one screen of 711 sequences. In the case of chain 1 R7K it was 0.788 Z-score of the enrichment rate within one screen of 711 sequences; in that of chain 1 R7N, -0.0352 Z-score of the enrichment rate within one screen of 711 sequences; in that of chain 1 R7M, 0.323 Z-score of the enrichment rate within one screen of 711 sequences. For chain 1 A15V, the screen value is 1.42 Z-score of the enrichment rate within one screen of 711 sequences. On to chain 1 A15S, for which the screen value is 1.46 Z-score of the enrichment rate within one screen of 711 sequences. With chain 1 A15K, the screen value was 1.73 Z-score of the enrichment rate within one screen of 711 sequences.

On to chain 1 A15I, for which the screen value was 0.806 Z-score of the enrichment rate within one screen of 711 sequences.

Consider chain 1 A15C, for which the screen value was 1.49 Z-score of the enrichment rate within one screen of 711 sequences. In the case of chain 1 A15W, the screen value was 1.84 Z-score of the enrichment rate within one screen of 711 sequences. Turning to chain 1 A15F, the screen value was 1.59 Z-score of the enrichment rate within one screen of 711 sequences. Regarding chain 1 A15Q, the screen value is 1.51 Z-score of the enrichment rate within one screen of 711 sequences.

For chain 1 A15T, the screen value is 1.58 Z-score of the enrichment rate within one screen of 711 sequences. For chain 1 A15E, the screen value is 1.37 Z-score of the enrichment rate within one screen of 711 sequences. Take chain 1 R7A, chain 1 L12A: the screen value is -0.492 Z-score of the enrichment rate within one screen of 711 sequences. With chain 1 L14F, the screen value was 1.33 Z-score of the enrichment rate within one screen of 711 sequences.

On to chain 1 L14K, for which the screen value is 0.866 Z-score of the enrichment rate within one screen of 711 sequences. The figure for chain 1 L14A is 0.48 Z-score of the enrichment rate within one screen of 711 sequences; for chain 1 L14R it is 0.833 Z-score of the enrichment rate within one screen of 711 sequences; for chain 1 L14D it is 0.409 Z-score of the enrichment rate within one screen of 711 sequences. In the case of chain 1 L14T, the screen value is 0.9 Z-score of the enrichment rate within one screen of 711 sequences. Consider chain 1 L14I, for which the screen value was 1.9 Z-score of the enrichment rate within one screen of 711 sequences.

Turning to chain 1 P8A, chain 1 P13A, the screen value was 0.299 Z-score of the enrichment rate within one screen of 711 sequences. In the case of chain 1 Q4A, chain 1 P13A, the screen value is 1.2 Z-score of the enrichment rate within one screen of 711 sequences. Consider chain 1 P3D, for which the screen value was 1.22 Z-score of the enrichment rate within one screen of 711 sequences. As to chain 1 P3M, the screen value was 1.81 Z-score of the enrichment rate within one screen of 711 sequences.

Take chain 1 P3N: the screen value is 1.46 Z-score of the enrichment rate within one screen of 711 sequences.

For the variant chain 1 P3F, the screen value is 1.46 Z-score of the enrichment rate within one screen of 711 sequences. chain 1 P3I: the screen value was 1.41 Z-score of the enrichment rate within one screen of 711 sequences. As to chain 1 P3V, the screen value is 1.59 Z-score of the enrichment rate within one screen of 711 sequences. Take chain 1 Q4A, chain 1 L10A: the screen value is -0.57 Z-score of the enrichment rate within one screen of 711 sequences. For chain 1 T9A, chain 1 L12A, the screen value is -0.742 Z-score of the enrichment rate within one screen of 711 sequences. On to chain 1 Q11T, for which the screen value was 2.32 Z-score of the enrichment rate within one screen of 711 sequences. On to chain 1 Q11W, for which the screen value was 2.17 Z-score of the enrichment rate within one screen of 711 sequences.

Consider chain 1 Q11Y, for which the screen value is 2.41 Z-score of the enrichment rate within one screen of 711 sequences. Consider chain 1 Q11H, for which the screen value is 1.89 Z-score of the enrichment rate within one screen of 711 sequences. As for chain 1 Q11N, the screen value is 1.79 Z-score of the enrichment rate within one screen of 711 sequences. The figure for chain 1 Q11G is 0.875 Z-score of the enrichment rate within one screen of 711 sequences. For chain 1 Q11I, the screen value was 1.51 Z-score of the enrichment rate within one screen of 711 sequences. On to chain 1 Q11C, for which the screen value is 1.43 Z-score of the enrichment rate within one screen of 711 sequences. Turning to chain 1 Q11E, the screen value is 1.43 Z-score of the enrichment rate within one screen of 711 sequences. In the case of chain 1 R7A, chain 1 P8A it was -0.277 Z-score of the enrichment rate within one screen of 711 sequences; in that of chain 1 P6H, 1.12 Z-score of the enrichment rate within one screen of 711 sequences. chain 1 P6F: the screen value is 1.06 Z-score of the enrichment rate within one screen of 711 sequences. Consider chain 1 P6L, for which the screen value is 1.25 Z-score of the enrichment rate within one screen of 711 sequences. In the case of chain 1 P6C, the screen value is 0.713 Z-score of the enrichment rate within one screen of 711 sequences.

chain 1 P6V: the screen value was 0.968 Z-score of the enrichment rate within one screen of 711 sequences. As for chain 1 P6Q, the screen value is 1.26 Z-score of the enrichment rate within one screen of 711 sequences.

Regarding chain 1 P6T, the screen value was 1.07 Z-score of the enrichment rate within one screen of 711 sequences.

For the variant chain 1 P6A, the screen value was 1.29 Z-score of the enrichment rate within one screen of 711 sequences. As for chain 1 R7A, chain 1 N16A, the screen value is 0.334 Z-score of the enrichment rate within one screen of 711 sequences. For chain 1 R5A, chain 1 T9A, the screen value is 0.257 Z-score of the enrichment rate within one screen of 711 sequences.

For the variant chain 1 L12A, chain 1 P13A, the screen value was -0.381 Z-score of the enrichment rate within one screen of 711 sequences. For chain 1 L12P, the screen value is -0.637 Z-score of the enrichment rate within one screen of 711 sequences. chain 1 L12I: the screen value was 0.938 Z-score of the enrichment rate within one screen of 711 sequences. For chain 1 L12E, the screen value is -0.637 Z-score of the enrichment rate within one screen of 711 sequences. Regarding chain 1 L12N, the screen value was -0.321 Z-score of the enrichment rate within one screen of 711 sequences. Take chain 1 L12V: the screen value is -0.205 Z-score of the enrichment rate within one screen of 711 sequences. The figure for chain 1 L12C is -0.457 Z-score of the enrichment rate within one screen of 711 sequences; for chain 1 L12A it is -0.706 Z-score of the enrichment rate within one screen of 711 sequences; for chain 1 P3A, chain 1 P8A it is 0.357 Z-score of the enrichment rate within one screen of 711 sequences. For the variant chain 1 R5A, chain 1 L12A, the screen value was -0.522 Z-score of the enrichment rate within one screen of 711 sequences.

Turning to chain 1 R5A, chain 1 P8A, the screen value was 0.293 Z-score of the enrichment rate within one screen of 711 sequences. On to chain 1 R5A, chain 1 L14A, for which the screen value was -0.406 Z-score of the enrichment rate within one screen of 711 sequences.
